The text below walks through data of article PMC9555226, “Microreactor equipped with naturally acid-resistant histidine ammonia lyase from an extremophile” (Materials advances, 2022).

Substrate in this series: N[C@@H](Cc1c[nH]cn1)C(=O)O
The series can be described thus: purified protein. The note with it: 37 °C, pH 7.4, buffer A, free enzyme. It counts as biochemical, Thermoplasma acidophilum.

Usually Km stands for the concentration of substrate that gives half-maximal velocity. In general, kcat refers to the number of substrate molecules converted per active site and unit of time at saturation. The kcat/Km is the turnover number divided by the Michaelis constant.

B1: TaHAL (Thermoplasma acidophilum histidine ammonia lyase) (Thermoplasma acidophilum DSM 1728) (protein)
chain: MIEIDGRSLRVEDVYAVAVEYDRVSISDDTLKAVEEKHEAFLKLINSGKTVYGVNTGFGSLLNVHIERDQEIELQKNLIRSHSSGVGDYLENRYVRAIMAVRLNSLAAGYSAVSADLLNMMVEMLNRDVIPAVPKYGSVGASGDLAPLAHIGLAMMGEGKAFFEGRLMDSARALEKAGLKPYQFKEKEGVALINGTSFMSGILSIAVMDAHDILENAIRSALLSFEALGGTSKAFTPWILGARPHLGQVAIGNRFREYLTGSDIVKRADSVKVQDAYTLRCIPQVYGSVADVIDYVENVLSVEINSATDNPLFNGEEVVSGGNFHGEPVALAADFLAIALTDLGNMVERRIARLVDTNLSGLPPFLTPDSGLNSGYMIPQYTAAALCNRNKVLAYPSSADTIPTSANQEDHVSMGATGSLKLLEIIDNVRYIIAIEYLLGSQALEFTDKGMSPSTRKIYEKIREKVEKLDHDRPPSFDIETIRKMMDKKEFISALP
notes: E. coli BL21(DE3), codon-optimized gene, pET28a; N-terminal His-SUMO tag cleaved with ULP1; ~55 kDa; homotetramer with MIO
Regarding B1, the Michaelis constant (Km) amounted to 45 ± 20 µM, the turnover number (kcat) was 1.01 ± 0.08 s⁻¹ and the kcat/Km amounted to 22400 ± 4000 M⁻¹ s⁻¹.
